What all share (assay): cell-based or functional assay
In assay [1] the target is gp120 of HIV strain SF162 (clade B) on virus (HIV-1 (strain SF162)).
Assay [2] addresses gp120 of HIV strain ZA009 (clade C) on virus (HIV-1 (strain 97ZA009)).
Assay [3] has as its target gp120 of HIV strain BR004 (clade C) on virus (HIV-1 (strain BR004)).

In the case of MAb b12 (antibody), the IC80, HIV neutralization (PBMC hosts, p24) in assay [1] is 14.1 µg/mL; in assay [2], greater than 20 µg/mL; in assay [3], greater than 20 µg/mL.
